Data published in US11046782B2, “Methods for treatment and diagnosis of cancer by targeting glycoprotein A repetitions predominant (GARP) and for providing effective immunotherapy alone or in combination” (MUSC FOUNDATION FOR RESEARCH DEVELOPMENT, priority 2016, dated 2021).

Experiments:
B16-F1 melanomas = assay: B16-F1 melanoma model, adoptive T cell therapy with anti-platelet agents; assay type: in vivo, C57BL/6 mice; settings: no adoptive T cells; Cy on day 7
Source text: To establish the clinical relevance of the suppressive effect of platelets on anti-tumor immunity, the impact of platelets on immunotherapy was addressed pharmacologically. B16-F1 melanomas were established in C57BL/6 mice after subcutaneous injection on day 0, followed by lymphodepletion with Cy on day 7, and infusion of ex vivo primed Pmel cells on day 8, along with anti-platelet (AP) agents: aspirin and clopidogrel. Aspirin and clopidogrel inhibit platelet activation by blocking cycloxyenase and ADP receptors, respectively.
B16-F1 tumor model and adoptive T cell therapy (ACT). […] (B16 EV, and B16 GARP-Fc; n=5-7 each group) of 6-8-week old female C57BL/6J mice were inoculated s.q. in the right flank using 2.5×10^5 cells and, when specified, treated with one intra-peritoneal injection of CY (4 mg/mouse) a day prior to adoptive T cell therapy. […] Primary tumor growth was monitored 3 times per week with vernier calipers. Peripheral adoptively transferred Pmel cells were monitored at 2, 3, 4, and 5 weeks after ACT. Ex-vivo Pmel IFN-γ production was assess stimulating Pmel cells for 3 h in presence of hgp100 and brefeldin A (BFA) at 37° C. and analyzed by flow cytometry.

[1] = test system: human GARP-expressing 4T1 tumor cells; assay: 4T1-huGARP orthotopic mammary tumor model, GARP antibody therapy; assay type: in vivo, BALB/c mice; settings: for primary tumor growth: antibody 0.1 mg/mouse i.p. three times per week, with or without a single dose of CY, vs isotype control
Description: 4T1 Tumor model and GARP antibody therapy. Female BALB/c mice, 6-8-week old were inoculated in the fourth mammary fat pad subcutaneously (s.q.) with 5×10^5 cells (4T1 EV, 4T1 GARP, or 4T1 GARP-Fc). Tumor growth was monitored three times per week with a digital vernier caliper and tumor volume was calculated using the following formula: tumor volume (mm^3)=[(width)^2×length][…]. In GARP antibody therapy experiments, beginning at 3 days post-tumor inoculation, anti-GARP antibody or polyclonal isotype-controlled antibody (0.1 mg/mouse in 0.1 mL PBS; three times per week) were administered intraperitoneally (i.p.) into mice. […] At end-point, mice were sacrificed and the primary tumor, draining LNs, spleen, lungs and liver were isolated. Tumor infiltrated lymphocytes were isolated by Collagenase D (Sigma) digestion followed by Histopaque-1083 (Sigma) mediated density separation.

mouse GARP = target: T1, mouse GARP (Mus musculus, UniProt G3XA59); assay: Cross-reactivity of anti-GARP mAb clones against mouse GARP; assay type: binding
T1 sequence (G3XA59 18-663): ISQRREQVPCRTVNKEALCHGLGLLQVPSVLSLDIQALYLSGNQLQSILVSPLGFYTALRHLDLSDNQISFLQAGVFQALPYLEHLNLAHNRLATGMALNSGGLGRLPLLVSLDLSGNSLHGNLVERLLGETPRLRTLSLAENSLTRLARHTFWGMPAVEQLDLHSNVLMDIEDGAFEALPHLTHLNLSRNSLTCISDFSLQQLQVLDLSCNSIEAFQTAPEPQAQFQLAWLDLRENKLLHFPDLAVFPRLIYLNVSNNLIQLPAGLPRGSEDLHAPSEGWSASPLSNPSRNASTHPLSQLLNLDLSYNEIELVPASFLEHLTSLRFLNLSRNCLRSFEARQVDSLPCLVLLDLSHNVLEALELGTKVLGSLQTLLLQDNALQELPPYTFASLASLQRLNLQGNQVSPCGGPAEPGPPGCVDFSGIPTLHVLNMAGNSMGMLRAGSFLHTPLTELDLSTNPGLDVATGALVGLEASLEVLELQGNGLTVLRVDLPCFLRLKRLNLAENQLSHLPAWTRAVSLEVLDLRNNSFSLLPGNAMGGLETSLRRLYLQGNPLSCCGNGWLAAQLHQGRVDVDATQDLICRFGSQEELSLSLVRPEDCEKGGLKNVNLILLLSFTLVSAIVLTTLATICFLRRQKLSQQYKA

[2] = target: T2, binding of exogenous human LTGFβ-1 (huLTGFβ-1) to surface GARP (Homo sapiens, UniProt Q14392); assay: Blocking of exogenous huLTGF-β binding to surface GARP on Pre-B-hGARP cells; assay type: cell-based; settings: staining for cell surface huLTGF-β
T2 construct: expressed in transfected cells; host or cells: murine Pre-B leukemia line 70Z/3 stably transduced with human GARP (MigR1 retroviral vector)
T2 sequence (Q14392 20-662): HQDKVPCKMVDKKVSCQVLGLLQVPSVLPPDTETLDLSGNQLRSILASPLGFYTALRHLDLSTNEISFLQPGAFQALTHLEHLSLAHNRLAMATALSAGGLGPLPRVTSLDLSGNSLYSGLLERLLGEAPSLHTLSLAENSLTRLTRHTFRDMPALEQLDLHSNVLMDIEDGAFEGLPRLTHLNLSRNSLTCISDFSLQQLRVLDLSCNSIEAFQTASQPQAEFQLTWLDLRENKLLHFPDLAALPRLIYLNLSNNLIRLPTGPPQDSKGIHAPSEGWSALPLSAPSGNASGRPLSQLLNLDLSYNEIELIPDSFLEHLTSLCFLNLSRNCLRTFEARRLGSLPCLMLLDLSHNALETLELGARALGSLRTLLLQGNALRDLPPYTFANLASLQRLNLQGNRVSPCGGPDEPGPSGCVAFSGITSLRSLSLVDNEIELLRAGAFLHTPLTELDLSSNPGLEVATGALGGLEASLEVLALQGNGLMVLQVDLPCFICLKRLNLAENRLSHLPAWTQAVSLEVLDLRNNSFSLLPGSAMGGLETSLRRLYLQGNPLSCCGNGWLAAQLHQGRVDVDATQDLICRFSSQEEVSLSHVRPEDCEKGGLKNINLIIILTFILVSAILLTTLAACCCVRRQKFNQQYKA
Description: FIGS. 7A-7E. GARP-specific antibodies block binding of exogenous LTGF-β to GARP and have therapeutic values against a preclinical model of breast cancer. (7A) Surface staining of Pre-B cells stably expressing human GARP (Pre-B-hGARP) by various GARP antibodies. Grey histogram represents staining with isotype control antibody. (7B) Pre-B-hGARP cells were incubated without or with human LTGF-β (huLTGF-β), in the presence of various GARP antibodies or Isotype control antibody, followed by staining for cell surface huLTGF-β. (7C) BALB/c mice were injected with 4T1-huGARP mammary tumors orthotopically, followed by indicated treatment regimen. Data shown are the comparisons of primary tumor weight isolated at 35 days (left panel, combined treatment group) or 30 days (right panel, antibody treatment alone) after inoculation. (7D) Impact of anti-GARP antibody treatment alone (left panel) or in combination with CY on the number of metastatic tumor nodules in the lungs. (7E) Percentage of splenic Tregs and MDSCs in the spleen of mice treated with isotype control antibody or anti-GARP antibody (4D3). Two sample t-tests were used to compare group differences in all panels. *P<0.05. ***P<0.001.

active TGF-β1 = assay: Active TGF-β ELISA of purified recombinant GARP-Fc; assay type: binding; settings: GARP-Fc purified from CHO conditioned medium
Description: Purification of GARP-Fc. For purification of GARP-Fc protein GARP-Fc, MigR1 vector was transfected into Chinese hamster ovary (CHO) cells using Lipofectamine 2000 (Invitrogen) according to the manufacturer's instructions. Stably transfected clones were selected by blasticidin (5 μg/ml) and protein expression was quantified by SDS-PAGE and Western blot under reducing conditions using anti-mouse GARP and anti-mouse Fc antibody. Recombinant GARP-Fc was purified from cell culture supernatants by protein A affinity chromatography (GE Health).
TGF-β1, GARP, and GARP-TGF-β1 analysis. Active TGF-β1, total TGF-β1, and soluble GARP were measured in human and mouse serum using TGF-β1 and GARP ELISA kits (BioLegend, San Diego, Calif.) according to the manufacturer's protocols. To measure GARP-TGF-β1 complex by ELISA, 96-well plates were coated with TGF-β1 capture antibody according to the manufacturer's instructions (BioLegend, San Diego, Calif.). Samples were incubated for 2 h at room temperature followed by the incubation with the anti-hGARP detection antibody developed in our lab for another 2 h.

NMuMG cells = NMuMG cells stimulated with soluble GARP-Fc (morphology, vimentin Western blot); assay type: cell-based, murine
Description: Protein extraction, immunoprecipitation, and Western blot analysis. Cells were harvested by trypsin-EDTA when necessary, washed in PBS, and lysed on ice in radio-immunoprecipitation assay (RIPA) lysis buffer in the presence of a protease inhibitor cocktail (Sigma-Aldrich). Nuclear-free protein lysate was quantified by Bradford assay (Bio-Rad), and an equal amount of lysate was analysed by SDS-PAGE and Western blot under reducing conditions using anti-mouse GARP (AF6229; R&D system), anti-mouse Vimentin (D21H3; Cell signaling), anti-mouse E-Cadherin (24E10; Cell Signaling) and anti-mouse p-Smad-2/3 (EP823Y; Abcam).
Cell proliferation and in vitro wound healing assay. NMuMG cells (4×10^5) were starved overnight in serum free DMEM (Corning cellgro). Starved cells were cultured at the indicated times with GARP-Fc in 2% FBS DMEM. […] Proliferation was determined with 3-[4,5 dimethylthiazol-2-yl]-2,5-diphenyltetrazolium bromide (MTT), which was added to the cells at the indicated times and incubated for an additional 3 h at 37° C. […] Absorbance at 570 nm was then measured using a plate reader. The cell migration was measured by the wound-healing assay: at 100% confluence, two parallel wounds were made using a 1 ml pipette tip. Migration was assessed after 24, 48 and 72 hours and quantification of wound closure was measured using the ImageJ software (NIH).

[3] = spleen, vs isotype control antibody

O=P1(N(CCCl)CCCl)NCCCO1 (stereo not shown) [Cy, cyclophosphamide]
tumor control without T cell transfer (B16-F1 melanomas): failed to control tumors

B1: 4D3: anti-GARP monoclonal antibody (IgG1); VH SEQ ID NO: 4, VL SEQ ID NO: 8 (antibody, listed as Homo sapiens, V domains shown)
VH: LDVQLQESGPGLVKPSQSLSLTCTVTGYSITSDYAWNWIRQFPGNKLEWMGYISYSGSTSYTPSLKSRISITRDTSKNHFFLQSNSVTTEDTATYYCAKSGGDYYGSSSYWYFDVWGAGTTVTVSS
VL: DIQMTQSPSSLSVSAGEKVTMSCKSSQSLLNSRSQKNYLAWYQQKPGQPPKLLIYRASTRGSGVPDRFTGSGSGTDFTLTISSVQAEDLAVYYCQNDHSYPFTFGSGTKLEIK
primary tumor growth [1]: modestly inhibited | splenic Gr1+CD11b+ myeloid-derived suppressor cells (MDSCs) [1, 3]: significant reduction | splenic Tregs [1, 3]: significant reduction | cross-reactivity against mouse GARP (mouse GARP): low level of cross-reactivity | block of binding of exogenous human LTGFβ-1 to surface GARP [2]: only clone able to block

B2: GARP-Fc: fusion protein consisting of the N-terminal extracellular domain of GARP linked to an Fc domain of IgG (protein)
chain: ISQRREQVPCRTVNKEALCHGLGLLQVPSVLSLDIQALYLSGNQLQSILVSPLGFYTALRHLDLSDNQISFLQAGVFQALPYLEHLNLAHNRLATGMALNSGGLGRLPLLVSLDLSGNSLHGNLVERLLGETPRLRTLSLAENSLTRLARHTFWGMPAVEQLDLHSNVLMDIEDGAFEALPHLTHLNLSRNSLTCISDFSLQQLQVLDLSCNSIEAFQTAPEPQAQFQLAWLDLRENKLLHFPDLAVFPRLIYLNVSNNLIQLPAGLPRGSEDLHAPSEGWSASPLSNPSRNASTHPLSQLLNLDLSYNEIELVPASFLEHLTSLRFLNLSRNCLRSFEARQVDSLPCLVLLDLSHNVLEALELGTKVLGSLQTLLLQDNALQELPPYTFASLASLQRLNLQGNQVSPCGGPAEPGPPGCVDFSGIPTLHVLNMAGNSMGMLRAGSFLHTPLTELDLSTNPGLDVATGALVGLEASLEVLELQGNGLTVLRVDLPCFLRLKRLNLAENQLSHLPAWTRAVSLEVLDLRNNSFSLLPGNAMGGLETSLRRLYLQGNPLSCCGNGWLAAQLHQGRVDVDATQDLICRFGSQEELSLSLVRPEDCEKGGLKNVN
modifications: left off: a dimerising Fc or GST
notes: fusion protein consisting of the N-terminal extracellular domain of GARP linked to an Fc domain of IgG
association between GARP-Fc and active TGF-β1 (active TGF-β1): direct association | vimentin expression (NMuMG cells; Western blot, indicated times and increasing doses): time- and dose-dependent upregulation | cell morphology change (NMuMG cells; serum-free medium, within 24 hours): spindle-shaped morphology

B3: 5C5: second anti-GARP mAb (IgG2a); VH SEQ ID NO: 12, VL SEQ ID NO: 16 (antibody, listed as Homo sapiens, V domains shown)
VH: EVKLVESGGGSVKPGGSLKLSCAASGFTFSNYVMSWVRQTPEKRLEWVATISSGGSYTYYPDSVKGRLTISRDNAKNTLYLQMSSLRSEDTAMYYCARGYDNGDYVMDYWGQGTSVTVSS
VL: DIVLTQSPASLAVSLGQRATISCRASESVDTYGNSFMHWYQQIPGQPPKVLIYRASNLESGIPARFSGSGSRTDFTLTINPVEAGDVATYYCQQTNEHPPTFGGGTKLEIK
primary tumor growth [1]: modestly inhibited
